The source of these data is US20050048548A1 (NEW ENGLAND BIOLABS, published 2005).

In the test the target is T1, MBP-BirA fusion (E. coli biotin ligase / biotin holoenzyme synthetase with N-terminal maltose binding protein) (E. coli, UniProt P0AEX9 27-392 = MBP; P06709 1-321, limits assumed).
T1 construct: also called BHS
As to the kind of experiment: phage ELISA on plate-coated MBP-BirA, anti-M13-HRP detection. On the technique in general: In an ELISA, binding on a coated surface is turned into a signal by an enzyme label.

B1: non-displaying M13 phage (no insert), without selenocysteine (other, bacteriophage M13, UniProt P69168 19-424, looked up)
chain: AETVESCLAKPHTENSFTNVWKDDKTLDRYANYEGCLWNATGVVVCTGDETQCYGTWVPIGLAIPENEGGGSEGGGSEGGGSEGGGTKPPEYGDTPIPGYTYINPLDGTYPPGTEQNPANPNPSLEESQPLNTFMFQNNRFRNRQGALTVYTGTVTQGTDPVKTYYQYTPVSSKAMYDAYWNGKFRDCAFHSGFNEDPFVCEYQGQSSDLPQPPVNAGGGSGGGSGGGSEGGGSEGGGSEGGGSEGGGSGGGSGSGDFDYEKMANANKGAMTENADENALQSDAKGKLDSVATDYGAAIDGFIGDVSGLANGNGATGDFAGSNSQMAQVGDGDNSPLMNNFRQYLPSLPQSVECRPFVFSAGKPYEFSIDCDKINLFRGVFAFLLYVATFMYVFSTFANILRNKES
notes: Control; whole phage, applied both after treatment with the biotinylating reagent and untreated; also called non-displaying phage
Turning to B1, the binding result is given as “no binding”.
